From PMC11910552, “Regulation of acetyl-CoA biosynthesis via an intertwined acetyl-CoA synthetase/acetyltransferase complex” (Nature Communications, 2025) come the findings set out here.

Substitutions are numbered along the chain they refer to.

B1: GCN5-related N-acetyltransferase AcuA (Bacillus subtilis) (enzyme)
chain: MEHHKTYHSANIKTATGSLLIEGPVSPEDLAGYEFHKDLTAFRPPREQHEALVDIAGLPEGRIIIARDGRTIVGYVTYLYPDPLERWSEGNMEDLIELGAIEVAPDYRGCAVGKTLLTVSMMDEQMENYIVMTTEYYWHWDLKGMKKDVWEYRKIMEKMMNAGGLVWFATDEPEISSHPANCLMARIGKNVSQESIEQFDRLRFYHRYMY
B2: GST-AcuA_E102Q (enzyme, Bacillus subtilis)
chain: B1 chain with E102Q
notes: source: E. coli BL21(DE3), purified
B3: Acetyl-CoA synthetase AcsA (Bacillus subtilis) (enzyme)
chain: MNLKALPAIEGDHNLKNYEETYRHFDWAEAEKHFSWHETGKLNAAYEAIDRHAESFRKNKVALYYKDAKRDEKYTFKEMKEESNRAGNVLRRYGNVEKGDRVFIFMPRSPELYFIMLGAIKIGAIAGPLFEAFMEGAVKDRLENSEAKVVVTTPELLERIPVDKLPHLQHVFVVGGEAESGTNIINYDEAAKQESTRLDIEWMDKKDGFLLHYTSGSTGTPKGVLHVHEAMIQQYQTGKWVLDLKEEDIYWCTADPGWVTGTVYGIFAPWLNGATNVIVGGRFSPESWYGTIEQLGVNVWYSAPTAFRMLMGAGDEMAAKYDLTSLRHVLSVGEPLNPEVIRWGHKVFNKRIHDTWWMTETGSQLICNYPCMDIKPGSMGKPIPGVEAAIVDNQGNELPPYRMGNLAIKKGWPSMMHTIWNNPEKYESYFMPGGWYVSGDSAYMDEEGYFWFQGRVDDVIMTSGERVGPFEVESKLVEHPAIAEAGVIGKPDPVRGEIIKAFIALREGFEPSDKLKEEIRLFVKQGLAAHAAPREIEFKDKLPKTRSGKIMRRVLKAWELNLPAGDLSTMED
notes: AcsA, acetyl-CoA synthetase of Bacillus subtilis; gene amplified from genomic DNA of strain 3610; catalytic lysine K549; the gene came from strain 3610; Monomer and dimer seen by mass photometry; also called Ac-CoA synthetase; source: E. coli BL21(DE3), purified (HisTrap, SEC)

Series [1] deals with T1, AcuA (Bacillus subtilis, UniProt P39065).
T1 construct: monomer 21 kDa by mass photometry
Nature of the series: isothermal titration calorimetry, one binding site model.

Series [2] has as its target B3. Nature of the series: cell-based or functional assay.
Series [3] has as its target B3. The experiment in a line: pull-down; 200 μg GST-tagged protein immobilised on GST-Sepharose beads in spin columns, 200 μg partner added in SEC buffer (20 mM HEPES-Na pH 7.5, 200 mM NaCl, 20 mM KCl, 20 mM MgCl2), 30 min, three washes, elution with 20 mM GSH, Coomassie-stained SDS-PAGE; without Ac-CoA (also with 1 mM ATP, 1 mM AMP or 130 μM CoA, or with AcuB and AcuC added). The conditions noted are these: both partners purified.

The target in series [4] is T2, Acetyl-CoA synthetase AcsA (Bacillus subtilis) (Bacillus subtilis) (UniProt P39062).
T2 sequence: B3 chain

Substrate in series [5]: CC(=O)O
The experiment in a line: purified protein. Particulars: without AcuA; 1 mM CoA, ATP 2.5 mM or 2 mM, 0.1 mM DTT, room temperature.

Series [6] concerns the molecule itself. The experiment in a line: mass photometry; TwoMP mass photometer, SEC buffer, 37.5 nM final protein concentration; proteins alone or 37.5 nM AcsA with 37.5 nM AcuA.

Turning to `CC(=O)SCCNC(=O)CCNC(=O)[C@H](O)C(C)(C)COP(=O)(O)OP(=O)(O)OC[C@H]1O[C@@H](n2cnc3c(N)ncnc32)[C@H](O)[C@@H]1OP(=O)(O)O` [Ac-CoA], in series [1], binding was characterised by a dissociation constant (Kd) of 9.47 ± 0.51 µM.
Turning to B1, in series [2], the “Vmax of Ac-CoA production by AcsA (HPLC) at AcsA:AcuA ratios 1:0.5, 1:1, 1:2, 1:5: 1834 down to 390 nmol mg^−1 min^−1 (without AcuA 2167)” value turned out to be 1830 nmol/mg/min.
Turning to B2, the binding result in series [3] was “binds”.
Turning to RLRFYHRYMY [AcuA C-terminus peptide (201-…-210)], the AcsA activity (HPLC) with 0-1 mM AcuA C-terminus peptide; reduction of activity at 1 mM in series [4] was found to be 90%.
Take B3: in series [5], the Km was found to be 430 µM and the Vmax was 2.17 µmol/min/mg. For the same molecule, the “stoichiometry N” value in series [6] is 2.
